Experimental data as given in publication PMC6141180.

Molecular target: p38α (UniProt P47811)
Experiment: ITC
Details: reference: native TAB1 (1-438); sites S423

Substance: TAB1 1-438 (from UniProt Q8CF89) pS423TAB1 (1-438), genetically encoded phosphoserine
- binding against the reference: same
